Results on 9 molecules are retold here after patent US20260193342A1 (ZOETIS SERVICES, published 2026).

Numbering of substitutions follows the chain as printed. Names and notes keep the numbering of the source.

B1: mAb1, caninized anti-IL31 antibody 34D03, canine IgGA, N434Y (antibody)
heavy: EVQLVESGGDLVKPGGSLRLSCVASGFTFSNYGMSWVRQAPGKGLQWVATISYGGSYTYYPDNIKGRFTISRDNAKNTLYLQMNSLRAEDTAMYYCVRGYGYDTMDYWGQGTLVTVSSASTTAPSVFPLAPSCGSTSGSTVALACLVSGYFPEPVTVSWNSGSLTSGVHTFPSVLQSSGLHSLSSMVTVPSSRWPSETFTCNVVHPASNTKVDKPVFNECRCTDTPPCPVPEPLGGPSVLIFPPKPKDILRITRTPEVTCVVLDLGREDPEVQISWFVDGKEVHTAKTQSREQQFNGTYRVVSVLPIEHQDWLTGKEFKCRVNHIDLPSPIERTISKARGRAHKPSVYVLPPSPKELSSSDTVSITCLIKDFYPPDIDVEWQSNGQQEPERKHRMTPPQLDEDGSYFLYSKLSVDKSRWQQGDPFTCAVMHETLQYHYTDLSLSHSPGK
light: EIVMTQSPASLSLSQEEKVTITCKASQSVSFAGTGLMHWYQQKPGQAPKLLIYRASNLEAGVPSRFSGSGSGTDFSFTISSLEPEDVAVYYCQQSREYPWTFGQGTKLEIKRNDAQPAVYLFQPSPDQLHTGSASVVCLLNSFYPKDINVKWKVDGVIQDTGIQESVTEQDKDSTYSLSSTLTMSSTEYLSHELYSCEITHKSLPSTLIKSFQRSEC
notes: VH/VL: the caninized 34D03 entries of the listing; also called ID No. 7; copies: 2 + 2
B2: mAb1, caninized anti-IL31 antibody 34D03, canine IgGB, N434I (antibody)
heavy: EVQLVESGGDLVKPGGSLRLSCVASGFTFSNYGMSWVRQAPGKGLQWVATISYGGSYTYYPDNIKGRFTISRDNAKNTLYLQMNSLRAEDTAMYYCVRGYGYDTMDYWGQGTLVTVSSASTTAPSVFPLAPSCGSTSGSTVALACLVSGYFPEPVTVSWNSGSLTSGVHTFPSVLQSSGLYSLSSMVTVPSSRWPSETFTCNVAHPASKTKVDKPVPKRENGRVPRPPDCPKCPAPEMLGGPSVFIFPPKPKDTLLIARTPEVTCVVVDLDPEDPEVQISWFVDGKQMQTAKTQPREEQFNGTYRVVSVLPIGHQDWLKGKQFTCKVNNKALPSPIERTISKARGQAHQPSVYVLPPSREELSKNTVSLTCLIKDFFPPDIDVEWQSNGQQEPESKYRTTPPQLDEDGSYFLYSKLSVDKSRWQRGDTFICAVMHEALHIHYTQESLSHSPGK
light: B1 light
notes: VH/VL: the caninized 34D03 entries of the listing; also called ID No. 12; copies: 2 + 2
B3: mAb1, caninized anti-IL31 antibody 34D03, canine IgGB, N434G (antibody)
heavy: B2 heavy with I440G
light: B1 light
notes: VH/VL: the caninized 34D03 entries of the listing; also called ID No. 11; copies: 2 + 2
B4: mAb1, caninized anti-IL31 antibody 34D03, canine IgGD, N434H (antibody)
chain 1: EVQLVESGGDLVKPGGSLRLSCVASGFTFSNYGMSWVRQAPGKGLQWVATISYGGSYTYYPDNIKGRFTISRDNAKNTLYLQMNSLRAEDTAMYYCVRGYGYDTMDYWGQGTLVTVSSASTTAPSVFPLAPSCGSTSGSTVALACLVSGYFPEPVTVSWNSGSLTSGVHTFPSVLQSSGLYSLSSTVTVPSSRWPSETFTCNVVHPASNTKVDKPVPKESTCKCISPCPVPESLGGPSVFIFPPKPKDILRITRTPEITCVVLDLGREDPEVQISWFVDGKEVHTAKTQPREQQFNSTYRVVSVLPIEHQDWLTGKEFKCRVNHIGLPSPIERTISKARGQAHQPSVYVLPPSPKELSSSDTVTLTCLIKDFFPPEIDVEWQSNGQPEPESKYHTTAPQLDEDGSYFLYSKLSVDKSRWQQGDTFTCAVMHEALQHHYTDLSLSHSPGK
chain 2: B1 light
B5: mAb1, caninized anti-IL31 antibody 34D03, canine IgGB, N434A (antibody)
heavy: B2 heavy with I440A
light: B1 light
notes: VH/VL: the caninized 34D03 entries of the listing; also called ID No. 9; copies: 2 + 2
B6: mAb1, caninized anti-IL31 antibody 34D03, canine IgGB, N434F (antibody)
heavy: B2 heavy with I440F
light: B1 light
notes: VH/VL: the caninized 34D03 entries of the listing; also called ID No. 10; copies: 2 + 2
B7: mAb2 of Table 4A, caninized anti-NGF antibody ZTS-841, canine IgGA, N434W (antibody)
heavy: EVQLVESGGDLVKPGGSLRLSCVASGFTFSSHGMHWVRQSPGKGLQWVAVINSGGSSTYYTDAVKGRFTISRDNAKNTVYLQMNSLRAEDTAMYYCAKESVGGWEQLVGPHFDYWGQGTLVIVSSASTTAPSVFPLAPSCGSTSGSTVALACLVSGYFPEPVTVSWNSGSLTSGVHTFPSVLQSSGLHSLSSMVTVPSSRWPSETFTCNVVHPASNTKVDKPVFNECRCTDTPPCPVPEPLGGPSVLIFPPKPKDILRITRTPEVTCVVLDLGREDPEVQISWFVDGKEVHTAKTQSREQQFNGTYRVVSVLPIEHQDWLTGKEFKCRVNHIDLPSPIERTISKARGRAHKPSVYVLPPSPKELSSSDTVSITCLIKDFYPPDIDVEWQSNGQQEPERKHRMTPPQLDEDGSYFLYSKLSVDKSRWQQGDPFTCAVMHETLQWHYTDLSLSHSPGK
VL: QSVLTQPTSVSGSLGQRVTISCSGSTNNIGILGASWYQLFPGKAPKLLVYGNGNRPSGVPDRFSGADSGDSVTLTITGLQAEDEADYYCQSFDTTLGAHVFGGGTHLTVL
notes: also called ID No. 44
B8: mAb2 of Table 4A, caninized anti-NGF antibody ZTS-841, canine IgGD, N434H (antibody)
heavy: EVQLVESGGDLVKPGGSLRLSCVASGFTFSSHGMHWVRQSPGKGLQWVAVINSGGSSTYYTDAVKGRFTISRDNAKNTVYLQMNSLRAEDTAMYYCAKESVGGWEQLVGPHFDYWGQGTLVIVSSASTTAPSVFPLAPSCGSTSGSTVALACLVSGYFPEPVTVSWNSGSLTSGVHTFPSVLQSSGLYSLSSTVTVPSSRWPSETFTCNVVHPASNTKVDKPVPKESTCKCISPCPVPESLGGPSVFIFPPKPKDILRITRTPEITCVVLDLGREDPEVQISWFVDGKEVHTAKTQPREQQFNSTYRVVSVLPIEHQDWLTGKEFKCRVNHIGLPSPIERTISKARGQAHQPSVYVLPPSPKELSSSDTVTLTCLIKDFFPPEIDVEWQSNGQPEPESKYHTTAPQLDEDGSYFLYSKLSVDKSRWQQGDTFTCAVMHEALQHHYTDLSLSHSPGK
VL: B7 VL
notes: also called ID No. 56
B9: mAb2 of Table 4A, caninized anti-NGF antibody ZTS-841, canine IgGA, N434Y (antibody)
heavy: B7 heavy with W443Y
VL: B7 VL
notes: also called ID No. 45

T1 sequence (A0A8I3PFR8 entry or part of it, one chain of several): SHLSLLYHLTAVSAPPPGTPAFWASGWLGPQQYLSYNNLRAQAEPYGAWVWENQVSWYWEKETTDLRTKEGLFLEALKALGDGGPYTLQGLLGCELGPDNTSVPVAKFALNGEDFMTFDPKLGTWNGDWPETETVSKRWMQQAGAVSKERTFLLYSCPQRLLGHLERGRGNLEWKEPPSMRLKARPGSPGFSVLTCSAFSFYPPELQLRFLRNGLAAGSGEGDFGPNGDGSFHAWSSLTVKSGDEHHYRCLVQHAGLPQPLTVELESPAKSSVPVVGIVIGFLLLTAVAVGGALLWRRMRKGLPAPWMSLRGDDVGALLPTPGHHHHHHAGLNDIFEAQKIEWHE

The first assay addresses T1, canine FcRn complex (FcRn-α subunit and β-microglobulin) (canine, UniProt A0A8I3PFR8 25-347, biotin on the BAP tag by BirA (Example 5 only)). Nature of the assay: SPR (Biacore), biotinylated FcRn on SA chip, IgG flowed, pH 6, 15 C. (In SPR one partner is held on a chip, and binding of the other changes the refractive index at the surface.)
In general, Kd refers to a measure of binding affinity in units of concentration. A low value points to tighter binding. The molecule B1 returned a Kd of 25.2 nM.

Take B2: the affinity, expressed as Kd, was 77.1 nM. In turn, B3 came in with a Kd of 118 nM. Against the preceding molecule, the Kd is about 1.5-fold higher. B4 came in with a Kd of 3.21 nM. This Kd lies about 37-fold lower than the previous one. For the molecule B5, the Kd turned out to be 139 nM.

Turning to B6, binding was put at a Kd of 30.7 nM.

B7 registered an equilibrium dissociation constant (Kd) of 10.6 nM.

In the case of B8, binding was put at a Kd of 12 nM. On the same count and under the same terms, next, B9: 14.3 nM.

The target of the next assay is T1, canine FcRn complex (FcRn-α subunit and …). Nature of the assay: SPR (Biacore), biotinylated FcRn on SA chip, IgG flowed, pH 7.4, 15 C.
B1 gave a Kd of 573 nM. Consider B2, for which the Kd was determined as 19600 nM. Against the preceding molecule, the Kd is about 34-fold higher. For the molecule B3, the Kd was determined as 26000 nM. As for B5, binding was characterised by a dissociation constant (Kd) of 175 nM. Consider B6, for which the Kd turned out to be 33700 nM. This Kd lies about 190-fold higher than the previous one. B7 returned a Kd of 1520 nM.

Consider B9, for which binding was characterised by a dissociation constant (Kd) of 9530 nM.
